According to PMC8596708:

Substrate: CNC(=O)Oc1ccc2[nH]cc(CCNC(C)=O)c2c1
Experiment: MTase-Glo bioluminescence assay
Assay type: biochemical, Streptomyces griseofuscus
Details: […] SAM; optimized conditions ([…] °C, pH […] KPi stated as optimum)

B1: PsmD (Streptomyces griseofuscus) (protein)
chain: MMQGQPHQDAGMPEPYAATADVYDRLVDYAIAEWGECPRPQMADFVEQAWAARGHRVRRVLELCCGTGLMTEQLVRRGYEVTAVDRSETMLALAKQRVGGAADFHQIELPAPLPDGADAVVCTAAAFNYQASARSLGETLRAVATVLPAGATFVFDIETAALLKGHWGNRVWAADEGDLAFIWDFTSEPDTTYCDVHYTQFTRHEAGADAYTGVREVHRLYAFDHDTVRAQARAAGFAQAEVFDNYTERPATDTTRYETWVLTRDER
- Km: 11.3 µM
